{"source": "patent US20180298101A1", "key": {"[1]": {"molecular_target": "JAK1 kinase domain (JH1) (human) (UniProt P23458)", "sequence (P23458 854-1154 limits assumed)": "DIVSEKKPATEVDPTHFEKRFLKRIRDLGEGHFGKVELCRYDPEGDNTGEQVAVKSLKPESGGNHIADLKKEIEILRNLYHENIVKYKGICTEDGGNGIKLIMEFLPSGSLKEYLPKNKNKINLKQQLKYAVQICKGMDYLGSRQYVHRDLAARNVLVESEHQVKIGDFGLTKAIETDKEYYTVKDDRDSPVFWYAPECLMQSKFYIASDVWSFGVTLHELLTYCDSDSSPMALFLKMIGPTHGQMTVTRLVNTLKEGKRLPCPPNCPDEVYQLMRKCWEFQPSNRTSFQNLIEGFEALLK", "assay": "cell-based or functional assay"}, "JAK3 kinase domain (JH1)": {"molecular_target": "JAK3 kinase domain (JH1) (UniProt P52333)", "sequence (P52333 811-1124 limits assumed)": "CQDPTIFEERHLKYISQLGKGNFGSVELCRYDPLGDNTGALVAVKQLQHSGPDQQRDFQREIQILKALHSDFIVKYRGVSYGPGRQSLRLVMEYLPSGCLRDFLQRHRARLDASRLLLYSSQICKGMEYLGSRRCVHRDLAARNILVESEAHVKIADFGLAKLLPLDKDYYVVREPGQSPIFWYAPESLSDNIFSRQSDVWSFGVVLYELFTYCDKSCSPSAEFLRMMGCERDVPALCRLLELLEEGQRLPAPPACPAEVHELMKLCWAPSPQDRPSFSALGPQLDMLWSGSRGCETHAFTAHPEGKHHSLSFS", "assay": "cell-based or functional assay"}, "TYK2 kinase domain (JH1)": {"molecular_target": "TYK2 kinase domain (JH1) (UniProt P29597)", "sequence (P29597 888-1187 limits assumed)": "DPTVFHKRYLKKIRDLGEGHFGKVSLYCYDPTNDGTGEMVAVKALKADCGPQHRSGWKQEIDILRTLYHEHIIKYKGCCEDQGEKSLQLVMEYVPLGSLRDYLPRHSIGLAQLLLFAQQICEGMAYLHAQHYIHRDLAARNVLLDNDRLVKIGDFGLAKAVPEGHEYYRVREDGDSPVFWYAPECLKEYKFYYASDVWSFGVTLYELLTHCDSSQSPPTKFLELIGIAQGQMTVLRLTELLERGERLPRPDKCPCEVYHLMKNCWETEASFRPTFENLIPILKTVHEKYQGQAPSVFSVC", "assay": "cell-based or functional assay"}, "JAK2 kinase domain (JH1)": {"molecular_target": "JAK2 kinase domain (JH1) (UniProt O60674)", "sequence (O60674 835-1132 limits assumed)": "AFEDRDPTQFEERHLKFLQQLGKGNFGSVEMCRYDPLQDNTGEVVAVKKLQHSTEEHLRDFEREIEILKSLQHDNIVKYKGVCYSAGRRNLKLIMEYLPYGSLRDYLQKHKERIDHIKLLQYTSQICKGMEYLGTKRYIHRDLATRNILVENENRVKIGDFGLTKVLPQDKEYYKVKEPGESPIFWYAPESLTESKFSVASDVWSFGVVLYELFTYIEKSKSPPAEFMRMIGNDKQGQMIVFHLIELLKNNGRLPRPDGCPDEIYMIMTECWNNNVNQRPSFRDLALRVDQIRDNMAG", "assay": "cell-based or functional assay"}, "[2]": {"molecular_target": "JAK1-Y1034 phosphopeptide with an alanine substitution at the +3 position (human)", "assay": "ITC, alanine-substituted phosphopeptide"}, "[3]": {"molecular_target": "JAK1 activation loop phosphopeptide (Tyr1034 phosphorylated) (human)", "assay": "ITC"}}}
{"substance": "hCIS-SH2-BC complex (ternary complex of human GST-CIS-SH2 construct, residues 66-258 with PEST region 174-202 deleted, with Elongin B and Elongin C) (from UniProt Q9NSE2 66-258; Q15370 1-118; P83940 17-112)", "values": [{"measurement": "IC50 of inhibition of JAK1 phosphorylation of a substrate peptide (in vitro kinase assay)", "setting": "[1]", "result": 120, "unit": "nM"}, {"measurement": "efficiency of JAK1 kinase inhibition against SOCS1 as reference", "setting": "[1]", "result": 100, "unit": "fold"}, {"measurement": "fold difference of kinase inhibition, JAK1 against JAK3 (in vitro kinase assay)", "setting": "JAK3 kinase domain (JH1)", "result": 20, "unit": "fold"}, {"measurement": "fold difference of kinase inhibition, JAK1 against TYK2 (in vitro kinase assay)", "setting": "TYK2 kinase domain (JH1)", "result": 20, "unit": "fold"}, {"measurement": "fold difference of kinase inhibition, JAK1 against JAK2 (in vitro kinase assay)", "setting": "JAK2 kinase domain (JH1)", "result": 20, "unit": "fold"}]}
{"substance": "human CIS lacking both the N-terminal region (residues 1-66) and the PEST motif (ΔNT/ΔPEST) in trimeric complex with elongin B and elongin C (from UniProt Q9NSE2 67-258; Q15370 1-118; Q15369 17-112)", "values": [{"measurement": "IC50 of inhibition of the JAK1 kinase domain (JH1), in vitro kinase reaction", "setting": "[1]", "result": 600, "unit": "nM"}, {"measurement": "fold reduction of binding against the wild-type JAK1-Y1034 phosphopeptide", "setting": "[2]", "result": 4, "unit": "fold"}]}
{"substance": "human CIS lacking the N-terminal 34 residues (ΔN34) in trimeric complex with elongin B and elongin C (from UniProt Q9NSE2 35-258; Q15370 1-118; Q15369 17-112)", "values": [{"measurement": "Kd", "setting": "[3]", "result": "2200 to 10000", "unit": "nM"}]}
